Source: patent US20160200786A1
Ends that are not written are not given here.

Assays:
[1] = target: GST-BCL-2δC21 fusion protein [GST: P08515]; assay: fluorescence polarization, unlabelled peptide displacing 25 nM fluoresceinated BIDBH3 from 1 µM GST-BCL-2
[2] = target: GST-BCL-2δC21 fusion protein [GST: P08515]; assay: fluorescence polarization, 25 nM fluorescein-peptide titrated with GST-BCL-2, 37 C
[3] = target: GST-BCL-2δC21 fusion protein [GST: P08515]; assay: fluorescence polarization, Kd of BADBH3 against Kd of BIDBH3 on BCL-2
[4] = target: GST-BCL-2δC21 fusion protein [GST: P08515]; assay: fluorescence polarization, 25 nM fluorescein-peptide titrated with GST-BCL-2, 37 C; SD +/- 11
[5] = target: GST-BCL-2δC21 fusion protein [GST: P08515]; assay: fluorescence polarization, unlabelled peptide displacing 25 nM fluoresceinated BIDBH3 from 1 µM GST-BCL-2; SD +/- 1648
[6] = target: GST-BCL-2δC21 fusion protein [GST: P08515]; assay: fluorescence polarization, 25 nM fluorescein-peptide titrated with GST-BCL-2, 37 C; SD +/- 272
[7] = target: GST-BCL-2δC21 fusion protein [GST: P08515]; assay: fluorescence polarization, unlabelled peptide displacing 25 nM fluoresceinated BIDBH3 from 1 µM GST-BCL-2; SD +/- 60
[8] = target: GST-BCL-2δC21 fusion protein [GST: P08515]; assay: fluorescence polarization, 25 nM fluorescein-peptide titrated with GST-BCL-2, 37 C; SD +/- 6

NOXAABH3 (peptide), sequence (peptide): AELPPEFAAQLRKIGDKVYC

| IC50 [1] [nM] | Kd [2] [nM] | Molecule | also measured |
| --- | --- | --- | --- |
| > 30000 | > 1000 | NOXAABH3 (peptide) |  |
| > 30000 | > 1000 | VIPMAAVKQALREAGDEFEL (fluorescein at the amino-terminus via an AHA linker in the Kd assays; unlabelled as competitor and on mitochondria) [BCLXBH3] |  |

More lines, now with the values behind:

| Molecule | IC50 [1] [nM] | Kd [2] [nM] | also measured |
| --- | --- | --- | --- |
| NOXABBH3 (peptide) | > 30000 | > 1000 |  |
| NLWAAQRYGRELRRMSDEFVDSFKK (not fully specified) [BADBH3] |  |  | fold greater affinity than BIDBH3 peptide [3]: 5 fold; Kd [4]: 41 nM |
| EDIIRNIARHAAQVGASMDR (not fully specified) [BIDBH3 mut] | > 30000 | > 1000 |  |
| MEGSDALALRLACIGDEMDV (not fully specified) [BIKBH3] |  |  | IC50 [5]: 4920 nM; Kd [6]: 485 nM |
| LWAAQRYGRELRRMSDEFEGSFKGL (not fully specified) [mBADBH3] |  |  | IC50 [7]: 173 nM; Kd [8]: 39 nM |
